Measurements: the supplement of paper PMC10567573
± gives the standard deviation.

Test: protein stability index of a GFP-peptide fusion (GPS, HEK-293T) (PSI 1-6); higher = more stable
[1] = treatment: DMSO, c terminus: native
[2] = treatment: MLN4924 1 uM, 8 h, c terminus: native
[3] = treatment: DMSO, c terminus: a fixed tail appended
[4] = treatment: MLN4924 1 uM, 8 h, c terminus: a fixed tail appended
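Further: 24-mer peptide tiles fused after GFP, lentivirally expressed, FACS-sorted into six equal bins by GFP/DsRed ratio, decoded by Illumina sequencing, PSI is the read-weighted mean bin number.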

| Sequence | protein stability index [1] | protein stability index [2] | protein stability index [3] | protein stability index [4] |
| --- | --- | --- | --- | --- |
| VAEPLAGPACVTVILPSCVPYNK [KLHL14] | 2.32 ± 0.37 | 2.36 ± 0.32 |  |  |
| MKRQNVRTLSLIVCTFTYLLVGAA [KCNK9] |  |  | 3.36 ± 0.22 | 2.95 ± 0.37 |
| EEAEGARWTSYRFSRVCRLHRGQL [TRIM35] |  |  | 2.91 ± 0.23 | 3 ± 0.08 |
| VEGRKHVDVQTELYLEEIADRIIE [RSPH3] |  |  | 2.55 ± 0.33 | 2.77 ± 0.41 |
| EGDVCGVEPPGPGDTVVQGDLQET [PBXIP1] |  |  | 5.57 ± 0.28 | 5.64 ± 0.19 |
| VKEWFGLGGEQAEEKAFESVIEPV [MIA2] |  |  | 4.23 ± 0.23 | 4.04 ± 0.15 |
| EQEIQFEDFTNTLRELGHAEHEIT [PKD2L1] |  |  | 5.16 ± 0.2 | 5.17 ± 0.32 |
| FGHHHQRAWIPSENIQDITVNIHR [ZMYND11] |  |  | 2.78 ± 0.37 | 2.69 ± 0.35 |
| EVQDLLEGCELPDLPSSLLLPEDM [SMG5] |  |  | 4.5 ± 0.13 | 4.67 ± 0.2 |
| GTEQAPYGMQTQNYPKGGLLDSMC [ETS2] |  |  | 3.59 ± 0.17 | 3.84 ± 0.4 |
| ESWDEEDKRNYPSLELDKMAHGYG [CHGB] |  |  | 4.87 ± 0.1 | 4.87 ± 0.14 |
| MAVRPSLPESGLLSVLQIAQQDLA [FANCE] |  |  | 3.29 ± 0.28 | 3.53 ± 0.35 |
| ISGREVFEFRPELVNDDDEEADDT [ZC3H15] |  |  | 5.51 ± 0.26 | 5.47 ± 0.16 |
| VQDMGQEDMLLPLAWRIVNDTYRT [CCNC] |  |  | 2.37 ± 0.21 | 2.57 ± 0.43 |
| GRKFLQKHLNASNPTEPATIIFTA [TOR1AIP2] |  |  | 2.35 ± 0.36 | 2.13 ± 0.32 |
| HGAHKHHPIEEAAEEHREKLLKQM [TRIM43] |  |  | 5.17 ± 0.24 | 5.14 ± 0.14 |
| GWGDCVWLPYLYTLQGLYLVYHPV [DHCR7] |  |  | 3.81 ± 0.74 | 3.25 ± 0.55 |
| IREDEVHRLGSPYGHCTAGGEGVE [SCNN1D] |  |  | 4.8 ± 0.26 | 4.85 ± 0.11 |
| RPDKALSEGDLKNAIRVHHALATR [PSD2] |  |  | 4.07 ± 0.1 | 4.31 ± 0.3 |
| GDTKRATPIEVLCENFPEMATYLR [CSNK1G3] |  |  | 3.04 ± 0.33 | 2.97 ± 0.38 |
| ENRTLQVLRAEHRGFQEENKALWE [CBY2] |  |  | 4.37 ± 0.37 | 4.38 ± 0.17 |
| GGTSSNNSEEEEDDDDEEEEVSEV [ANKRD17] |  |  | 5.5 ± 0.23 | 5.54 ± 0.16 |
| PVFNAMFEHEMEESKKNRVEINDL [SPOPL] |  |  | 4.26 ± 0.32 | 4.69 ± 0.21 |

| Sequence | protein stability index [1] | protein stability index [2] | protein stability index [3] | protein stability index [4] |
| --- | --- | --- | --- | --- |
| TEVPFSITTDNLQCRERREHPNLV [TEKT4] |  |  | 4.17 ± 0.15 | 4.1 ± 0.15 |
| EARICRLLKHPNIVRLHDSISEEG [CAMK2D] |  |  | 3.56 ± 0.47 | 3.34 ± 0.28 |
| SGADFHKKDKCGRTPLHYAAANCH [ANKRD44] |  |  | 3.42 ± 0.44 | 3.32 ± 0.27 |
| ATFSGFKKEQRRLGIPKNPWLWSE [ETS2] |  |  | 2.28 ± 0.18 | 2.57 ± 0.52 |
| ASALTLVLGGRRLRRAWFSWPRAS [SCNN1D] |  |  | 2.13 ± 0.39 | 2.05 ± 0.28 |
| IKVEQATKPSFESGRRGPPPPPRS [RBMX] |  |  | 4.06 ± 0.36 | 4.17 ± 0.34 |
| CRALRDPALDSLAYEYEREGLYEQ [TRADD] |  |  | 3.73 ± 0.34 | 3.63 ± 0.18 |
| RNRPSFDAILYYYQSGGRLKRPVN [KCNA4] |  |  | 2.08 ± 0.27 | 2.42 ± 0.5 |
| DIKKVNNFIREQDLYALKSVKIPV [LYSMD4] |  |  | 2.38 ± 0.15 | 2.53 ± 0.4 |
| SSELTDSLRTLKPEGNILRDRFKS [NOP53] |  |  | 4.42 ± 0.22 | 4.49 ± 0.14 |
| TGYLSSMVGLILGPFGVNHGVELH [PCMTD2] |  |  | 3.17 ± 0.31 | 2.78 ± 0.4 |
| AHELGHSLGLSHSTDIGALMYPSY [MMP1] |  |  | 3.14 ± 0.18 | 2.9 ± 0.14 |
| WRWQLYAAQSTKSPWNFLGDELYE [CLPTM1] |  |  | 2.79 ± 0.38 | 2.39 ± 0.3 |
| HPAFLPQRQAIKGAFYRRAQRLRP [KCNG1] |  |  | 3.32 ± 0.37 | 3.58 ± 0.33 |
| DGASQDCPPLPAGVSFHIDSAELE [FBXO34] |  |  | 5.39 ± 0.14 | 5.4 ± 0.16 |
| SESTNTTIEDEDTKVRKQEIIKVT [CAMK2A] |  |  | 5.32 ± 0.24 | 5.31 ± 0.18 |
| KDMATGKSKGYGFVSFFNKWDAEN [TIA1] |  |  | 2.44 ± 0.3 | 2.94 ± 0.28 |
| GPRRLVSCLSSQSSALSQSGGGST [SPACA3] |  |  | 3.81 ± 0.22 | 4 ± 0.19 |
| IVEVLGIPPAAMLDQAPKARKYFE [DYRK1B] |  |  | 2.65 ± 0.42 | 2.93 ± 0.14 |
| GSQPNSGLALESSSGLQDVTGPDN [NFE2L1] |  |  | 5.45 ± 0.21 | 5.44 ± 0.3 |
| VKTSVPSSKSSGDLVDLFDGTSQS [CLINT1] |  |  | 4.71 ± 0.24 | 4.8 ± 0.18 |
| SSDVSTAGTGASRSSHSSDSGGSD [ELF3] |  |  | 5.44 ± 0.32 | 5.565 ± 0.049 |
| APRTSSCAERLQSEEQVSKNLFGP [FCHO1] |  |  | 4.21 ± 0.17 | 4.17 ± 0.31 |

| Sequence | protein stability index [1] | protein stability index [2] | protein stability index [3] | protein stability index [4] |
| --- | --- | --- | --- | --- |
| PEAAAAQLRATAGSLILPPGPGGT [FCHO1] |  |  | 4.26 ± 0.41 | 4.26 ± 0.53 |
| ATRSTTQSNRTSRLIGKKMNRSVS [WEE1] |  |  | 4.27 ± 0.28 | 4.21 ± 0.3 |
| DTSFLPDRDREEEENRLREELRQE [FAM50A] |  |  | 5.17 ± 0.31 | 5.41 ± 0.18 |
| ISLMYGGSKRKSSFFSSPPYFED [SLA] | 2.22 ± 0.22 | 2.27 ± 0.27 |  |  |
| PAVRQLLPCARVQICRAQGLETLF [ZSWIM9] |  |  | 2.19 ± 0.49 | 2.5 ± 0.64 |
| ENRLSVFFSVIFMTVGILSNSLAI [PTGFR] |  |  | 3.14 ± 0.25 | 3.36 ± 0.17 |
| AAPEGKRSLANGPNAGEQPGQVAG [EID1] |  |  | 5.44 ± 0.38 | 5.22 ± 0.16 |
| AQKTALLQDGRRKVHYLFPDGKEM [DPCD] |  |  | 3.29 ± 0.22 | 3.62 ± 0.23 |
| ATDYLRYKPVVLLQGLSLIVTWFM [SLC19A2] |  |  | 2.35 ± 0.12 | 2.42 ± 0.19 |
| QNVDVNVHPTKHEVHFLHEESILE [MLH1] |  |  | 4.72 ± 0.19 | 4.75 ± 0.056 |
| LSLGALVALCWQLGLLFERHWHRP [SCNN1D] |  |  | 3.09 ± 0.24 | 3.16 ± 0.19 |
| AANPRPDALMKEQLVEMTGLSPRV [ISL2] |  |  | 4.17 ± 0.27 | 4.19 ± 0.33 |
| TLSDWAAAVESVLHLGLPWRMLRP [PPEF2] |  |  | 3.1 ± 0.84 | 2.48 ± 0.37 |
| LAAAVVQEHSNSVGGQDTGATWRT [C18orf25] |  |  | 4.22 ± 0.23 | 4.18 ± 0.21 |
| EMPTQPGKPLIPPMNRRNILVMKH [NETO1] |  |  | 3.21 ± 0.045 | 3.27 ± 0.24 |
| SQDVSDCYLELFPAHLYFQAHGSE [PLEKHN1] |  |  | 2.49 ± 0.19 | 2.81 ± 0.4 |
| QVLEMKNQQIHEQEKKILELEKLA [MTUS2] |  |  | 4.68 ± 0.31 | 4.62 ± 0.45 |
| SLGRHKRTHTGEKPYTCSVCGKSF [ZNF8] |  |  | 3.2 ± 0.58 | 3.69 ± 0.6 |
| LQVIYWARDVFIITGVWVFFFNPC [GOSR1] |  |  | 2.37 ± 0.7 | 2.57 ± 0.15 |
| ETETLVTREAVTEILGIEPDREKG [TSN] |  |  | 5.5 ± 0.19 | 5.39 ± 0.33 |
| LACWTYGISVPSGLFVPSLLCGAA [CLCN6] |  |  | 3.13 ± 0.1 | 3.43 ± 0.4 |
| YLTEGLLQFTILLSLIGVRVDVDT [NFE2L1] |  |  | 2.66 ± 0.15 | 3.25 ± 0.35 |
| RDPAAGAAPFRFVARPVRFPREHQ [ZNF511] |  |  | 2.61 ± 0.72 | 3.23 ± 0.68 |

| Sequence | protein stability index [1] | protein stability index [2] | protein stability index [3] | protein stability index [4] |
| --- | --- | --- | --- | --- |
| EQQRIIAILLDAHHKTYDPTYSDF [VDR] |  |  | 2.48 ± 0.37 | 2.27 ± 0.15 |
| MDSDMDYERPNVETIKCVVVGDNA [RHOBTB2] |  |  | 4.74 ± 0.21 | 4.87 ± 0.22 |
| VTSQQEPQIPVDRGSETTYESSAD [TAF7L] |  |  | 5.21 ± 0.25 | 5.52 ± 0.23 |
| ILTFLRAGKLRLLREMCALSFQEE [KCNG1] |  |  | 3.24 ± 0.69 | 2.19 ± 0.28 |
| ISVLAFSVCFIFTITIGMFPAVTV [SLC29A1] |  |  | 2.96 ± 0.13 | 2.92 ± 0.32 |
| ALKYWKKAMNMRYSDRTNIISKPV [FEM1C] |  |  | 2.5 ± 0.52 | 2.28 ± 0.31 |
| SFGQVVKAYDHQTQELVAIKIIKN [DYRK1B] |  |  | 2.76 ± 0.31 | 2.97 ± 0.2 |
| LIQDGNPMENLEKQLICPICLEMF [TRIM63] |  |  | 2.87 ± 0.58 | 2.97 ± 0.54 |
| KTAATRYRQKKRAEQEALTGECKE [ATF4] |  |  | 4.95 ± 0.16 | 5.1 ± 0.094 |
| SSTSPLMEGTPTIKSKKKLLQIID [VPS39] |  |  | 3.76 ± 0.23 | 3.79 ± 0.23 |
| CAIQMFSFLFLGCSHSFLLAVMGY [OR10K2] |  |  | 3.41 ± 0.14 | 3.46 ± 0.37 |
| HQGEEEGPLDIWAVVKPGNTKEKI [FBXO34] |  |  | 4.6 ± 0.15 | 4.76 ± 0.27 |
| SMFSRVGGIIAPFIPSLKYVQWSL [SLC22A15] |  |  | 2.54 ± 0.41 | 2.5 ± 0.65 |
| RGEALGLVGAQAPATEEQEAASSS [MAGEA3] |  |  | 5.61 ± 0.27 | 5.62 ± 0.1 |
| VKISDFGLAKCNGLSHSHDLSMDG [RIPK4] |  |  | 2.95 ± 0.42 | 3.23 ± 0.37 |
| LSSQCFSNISRPRDNPMCLKCDLQ [M1AP] |  |  | 3.2 ± 0.035 | 3.27 ± 0.15 |
| RFEEGGRRKCGQYWPLEKDSRIRF [PTPN9] |  |  | 3.04 ± 0.36 | 2.88 ± 0.33 |
| RIYRMIKLGLGIDEDEVAAEEPNA [HSP90AB1] |  |  | 2.95 ± 0.24 | 3.19 ± 0.38 |
| RSRREQFSRAPVSALPLAPNHLGG [STX5] |  |  | 3.46 ± 0.15 | 3.77 ± 0.31 |
| LSQADFLVCTFSSQVCRVAYEIMQ [FUT8] |  |  | 2.96 ± 0.39 | 2.93 ± 0.58 |
